Measurements from FireProtDB (doi:10.1021/bi990893b).

Settings: Bos taurus; pH 7; Thermal; Absorbance; Sodium phosphate 100 mM; whole UniProt chain shown

B1: Cytochrome b5 wild type, P00171 (protein)
chain: MAEESSKAVKYYTLEEIQKHNNSKSTWLILHYKVYDLTKFLEEHPGGEEVLREQAGGDATENFEDVGHSTDARELSKTFIIGELHPDDRSKITKPSESIITTIDSNPSWWTNWLIPAISALFVALIYHLYTSEN
Tm: 67.2 °C
unfolding enthalpy (van 't Hoff): 95.1 kcal/mol
